From patent publication EP0853661B1

Key:
[1] = target: TGFβ3 (transforming growth factor beta 3) (UniProt P10600); experiment: A549 cell radioreceptor assay, inhibition of 125I-TGFβ3 binding to receptors
[2] = target: human TGFβ1 (transforming growth factor beta 1) (human) (UniProt P01137); experiment: A549 cell radioreceptor assay, inhibition of 125I-TGFβ1 binding to receptors
[3] = target: human TGFβ2 (transforming growth factor beta 2) (human) (UniProt P61812); experiment: A549 cell radioreceptor assay, inhibition of 125I-TGFβ2 binding to receptors
[4] = target: human TGFβ1 (transforming growth factor beta 1) (human) (UniProt P01137); experiment: cell-based or functional assay
[5] = target: human TGFβ2 (transforming growth factor beta 2) (human) (UniProt P61812); experiment: cell-based or functional assay
[6] = target: TGFβ3 (transforming growth factor beta 3) (UniProt P10600); experiment: cell-based or functional assay

TGFβ3 (transforming growth factor beta 3), sequence (P10600 301-412 limits assumed): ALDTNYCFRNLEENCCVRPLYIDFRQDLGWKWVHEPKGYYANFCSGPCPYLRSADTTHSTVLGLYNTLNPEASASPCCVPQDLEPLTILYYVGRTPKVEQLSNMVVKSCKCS
human TGFβ1 (transforming growth factor beta 1) (human), sequence (P01137 279-390 limits assumed): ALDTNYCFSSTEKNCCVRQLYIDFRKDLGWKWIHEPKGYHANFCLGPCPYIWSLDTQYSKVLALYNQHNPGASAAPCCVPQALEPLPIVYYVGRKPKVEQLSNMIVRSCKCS
human TGFβ2 (transforming growth factor beta 2) (human), sequence (P61812 303-414): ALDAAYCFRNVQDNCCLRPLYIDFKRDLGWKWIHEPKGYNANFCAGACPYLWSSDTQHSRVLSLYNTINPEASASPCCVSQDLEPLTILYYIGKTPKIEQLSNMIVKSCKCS

Q: Which IC50 [1] does the source give for “mouse monoclonal antibody from Genzyme (Mouse anti-TGF β1,2,3; J.R. Dasch et al.)” here?
A: 0.03 nM

Q: And the IC50 [2]?
A: 0.55 nM

Q: What about the IC50 [3] of the same substance?
A: 0.5 nM

Q: What about the TF1 cell proliferation assay IC50 (nM IgG) [4] of the same substance?
A: 1.5 nM

Q: And the TF1 cell proliferation assay IC50 (nM IgG) [5]?
A: 10 nM

Q: What about the TF1 cell proliferation assay IC50 (nM IgG) [6] of the same substance?
A: 0.1 nM
